Assay results reported in article PMC4475461.
Where two headings read alike, the source gives them in different places.

Key:
HLTF HIRAN domain [1] = target: T1, HLTF HIRAN domain (Homo sapiens, UniProt Q14527 55-180); experiment: NMR
T1 sequence: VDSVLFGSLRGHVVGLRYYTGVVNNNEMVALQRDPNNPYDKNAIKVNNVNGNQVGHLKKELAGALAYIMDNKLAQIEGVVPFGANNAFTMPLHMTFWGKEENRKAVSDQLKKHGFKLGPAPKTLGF

HLTF HIRAN domain [2] = target: T1, HLTF HIRAN domain; experiment: NMR; remark: listed apart in the source

B1: d(GCTGATAAAT) (ssDNA)
DNA: GCTGATAAAT
binding result (HLTF HIRAN domain [1]): binds

B2: d(GCTGATAAAT) duplex (dsDNA)
DNA 1: GCTGATAAAT
DNA 2: ATTTATCAGC
binding result (HLTF HIRAN domain [1]): no binding

B3: dT10 (NMR) (ssDNA)
DNA: TTTTTTTTTT
binding result (HLTF HIRAN domain [2]): binds
